The values that follow come from US20210115092A1 (YEDA RESEARCH AND DEVELOPMENT, published 2021).

The target in this test is T1, Flag-Cas9 (wild-type, unmodified SpCas9) (Streptococcus pyogenes, UniProt Q99ZW2 2-1368).
T1 construct: expressed in HEK293; also called original Cas9; wt Cas9; not shown: Flag tag and N-terminal NLS of the vector; C-terminal NLS and what remains of the T2A peptide
Put plainly: co-immunoprecipitation, anti-Flag IP from transfected HEK293 extracts, immunoblot.

T1 sequence (Q99ZW2 2-1368): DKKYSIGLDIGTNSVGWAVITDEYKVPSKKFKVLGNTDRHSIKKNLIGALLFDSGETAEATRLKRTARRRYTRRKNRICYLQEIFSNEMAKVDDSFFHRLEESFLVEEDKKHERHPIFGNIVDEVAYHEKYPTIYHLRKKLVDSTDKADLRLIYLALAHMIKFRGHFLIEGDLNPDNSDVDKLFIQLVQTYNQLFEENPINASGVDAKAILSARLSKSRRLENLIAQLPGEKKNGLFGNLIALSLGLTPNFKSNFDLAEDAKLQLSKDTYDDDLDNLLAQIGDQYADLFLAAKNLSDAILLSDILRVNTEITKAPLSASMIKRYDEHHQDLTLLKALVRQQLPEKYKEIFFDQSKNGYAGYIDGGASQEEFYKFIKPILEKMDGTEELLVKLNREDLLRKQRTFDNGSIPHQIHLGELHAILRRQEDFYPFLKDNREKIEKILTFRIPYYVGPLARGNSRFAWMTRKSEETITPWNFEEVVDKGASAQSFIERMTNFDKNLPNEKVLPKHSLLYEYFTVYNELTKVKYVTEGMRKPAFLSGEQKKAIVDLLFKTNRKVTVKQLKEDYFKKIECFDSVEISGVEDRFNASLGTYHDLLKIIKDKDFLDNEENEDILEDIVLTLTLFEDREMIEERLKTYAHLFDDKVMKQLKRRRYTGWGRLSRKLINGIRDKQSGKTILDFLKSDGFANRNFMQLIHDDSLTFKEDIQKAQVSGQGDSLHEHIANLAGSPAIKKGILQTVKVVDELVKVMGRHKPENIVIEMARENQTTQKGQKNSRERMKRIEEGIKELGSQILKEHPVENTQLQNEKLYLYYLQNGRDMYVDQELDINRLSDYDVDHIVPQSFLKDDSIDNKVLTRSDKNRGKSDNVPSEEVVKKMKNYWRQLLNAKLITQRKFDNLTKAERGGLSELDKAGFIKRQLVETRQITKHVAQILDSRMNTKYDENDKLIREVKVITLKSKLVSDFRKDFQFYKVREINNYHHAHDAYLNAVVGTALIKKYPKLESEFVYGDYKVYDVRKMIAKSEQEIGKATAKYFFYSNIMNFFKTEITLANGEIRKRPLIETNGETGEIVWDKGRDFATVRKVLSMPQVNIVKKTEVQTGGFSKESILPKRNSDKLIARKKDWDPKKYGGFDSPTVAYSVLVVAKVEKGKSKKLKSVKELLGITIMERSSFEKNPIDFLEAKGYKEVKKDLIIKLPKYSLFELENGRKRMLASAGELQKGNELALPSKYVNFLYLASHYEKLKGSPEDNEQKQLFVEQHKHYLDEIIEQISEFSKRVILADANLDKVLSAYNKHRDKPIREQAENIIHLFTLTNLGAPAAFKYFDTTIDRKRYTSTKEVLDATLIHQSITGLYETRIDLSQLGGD

B1: Nibrin (other)
chain: MWKLLPAAGPAGGEPYRLLTGVEYVVGRKNCAILIENDQSISRNHAVLTANFSVTNLSQTDEIPVLTLKDNSKYGTFVNEEKMQNGFSRTLKSGDGITFGVFGSKFRIEYEPLVACSSCLDVSGKTALNQAILQLGGFTVNNWTEECTHLVMVSVKVTIKTICALICGRPIVKPEYFTEFLKAVESKKQPPQIESFYPPLDEPSIGSKNVDLSGRQERKQIFKGKTFIFLNAKQHKKLSSAVVFGGGEARLITEENEEEHNFFLAPGTCVVDTGITNSQTLIPDCQKKWIQSIMDMLQRQGLRPIPEAEIGLAVIFMTTKNYCDPQGHPSTGLKTTTPGPSLSQGVSVDEKLMPSAPVNTTTYVADTESEQADTWDLSERPKEIKVSKMEQKFRMLSQDAPTVKESCKTSSNNNSMVSNTLAKMRIPNYQLSPTKLPSINKSKDRASQQQQTNSIRNYFQPSTKKRERDEENQEMSSCKSARIETSCSLLEQTQPATPSLWKNKEQHLSENEPVDTNSDNNLFTDTDLKSIVKNSASKSHAAEKLRSNKKREMDDVAIEDEVLEQLFKDTKPELEIDVKVQKQEEDVNVRKRPRMDIETNDTFSDEAVPESSKISQENEIGKKRELKEDSLWSAKEISNNDKLQDDSEMLPKKLLLTEFRSLVIKNSTSRNPSGINDDYGQLKNFKKFKKVTYPGAGKLPHIIGGSDLIAHHARKNTELEEWLRQEMEVQNQHAKEESLADDLFRYNPYLKRRR
notes: also called Nbs1; NBN
On to B1, for which the binding result is reported as “no binding”.

B2: DNA repair protein RAD50 (other)
chain: MSRIEKMSILGVRSFGIEDKDKQIITFFSPLTILVGPNGAGKTTIIECLKYICTGDFPPGTKGNTFVHDPKVAQETDVRAQIRLQFRDVNGELIAVQRSMVCTQKSKKTEFKTLEGVITRTKHGEKVSLSSKCAEIDREMISSLGVSKAVLNNVIFCHQEDSNWPLSEGKALKQKFDEIFSATRYIKALETLRQVRQTQGQKVKEYQMELKYLKQYKEKACEIRDQITSKEAQLTSSKEIVKSYENELDPLKNRLKEIEHNLSKIMKLDNEIKALDSRKKQMEKDNSELEEKMEKVFQGTDEQLNDLYHNHQRTVREKERKLVDCHRELEKLNKESRLLNQEKSELLVEQGRLQLQADRHQEHIRARDSLIQSLATQLELDGFERGPFSERQIKNFHKLVRERQEGEAKTANQLMNDFAEKETLKQKQIDEIRDKKTGLGRIIELKSEILSKKQNELKNVKYELQQLEGSSDRILELDQELIKAERELSKAEKNSNVETLKMEVISLQNEKADLDRTLRKLDQEMEQLNHHTTTRTQMEMLTKDKADKDEQIRKIKSRHSDELTSLLGYFPNKKQLEDWLHSKSKEINQTRDRLAKLNKELASSEQNKNHINNELKRKEEQLSSYEDKLFDVCGSQDFESDLDRLKEEIEKSSKQRAMLAGATAVYSQFITQLTDENQSCCPVCQRVFQTEAELQEVISDLQSKLRLAPDKLKSTESELKKKEKRRDEMLGLVPMRQSIIDLKEKEIPELRNKLQNVNRDIQRLKNDIEEQETLLGTIMPEEESAKVCLTDVTIMERFQMELKDVERKIAQQAAKLQGIDLDRTVQQVNQEKQEKQHKLDTVSSKIELNRKLIQDQQEQIQHLKSTTNELKSEKLQISTNLQRRQQLEEQTVELSTEVQSLYREIKDAKEQVSPLETTLEKFQQEKEELINKKNTSNKIAQDKLNDIKEKVKNIHGYMKDIENYIQDGKDDYKKQKETELNKVIAQLSECEKHKEKINEDMRLMRQDIDTQKIQERWLQDNLTLRKRNEELKEVEEERKQHLKEMGQMQVLQMKSEHQKLEENIDNIKRNHNLALGRQKGYEEEIIHFKKELREPQFRDAEEKYREMMIVMRTTELVNKDLDIYYKTLDQAIMKFHSMKMEEINKIIRDLWRSTYRGQDIEYIEIRSDADENVSASDKRRNYNYRVVMLKGDTALDMRGRCSAGQKVLASLIIRLALAETFCLNCGIIALDEPTTNLDRENIESLAHALVEIIKSRSQQRNFQLLVITHDEDFVELLGRSEYVEKFYRIKKNIDQCSEIVKCSVSSLGFNVH
In the case of B2, the binding result is listed as “no binding”.

B3: Double-strand break repair protein MRE11A (enzyme)
chain: STADALDDENTFKILVATDIHLGFMEKDAVRGNDTFVTLDEILRLAQENEVDFILLGGDLFHENKPSRKTLHTCLELLRKYCMGDRPVQFEILSDQSVNFGFSKFPWVNYQDGNLNISIPVFSIHGNHDDPTGADALCALDILSCAGFVNHFGRSMSVEKIDISPVLLQKGSTKIALYGLGSIPDERLYRMFVNKKVTMLRPKEDENSWFNLFVIHQNRSKHGSTNFIPEQFLDDFIDLVIWGHEHECKIAPTKNEQQLFYISQPGSSVVTSLSPGEAVKKHVGLLRIKGRKMNMHKIPLHTVRQFFMEDIVLANHPDIFNPDNPKVTQAIQSFCLEKIEEMLENAERERLGNSHQPEKPLVRLRVDYSGGFEPFSVLRFSQKFVDRVANPKDIIHFFRHREQKEKTGEEINFGKLITKPSEGTTLRVEDLVKQYFQTAEKNVQLSLLTERGMGEAVQEFVDKEEKDAIEELVKYQLEKTQRFLKERHIDALEDKIDEEVRRFRETRQKNTNEEDDEVREAMTRARALRSQSEESASAFSADDLMSIDLAEQMANDSDDSISAATNKGRGRGRGRRGGRGQNSASRGGSQRGRADTGLETSTRSRNSKTAVSASRNMSIIDAFKSTRQQPSRNVTTKNYSEVIEVDESDVEEDIFPTTSKTDQRWSSTSSSKIMSQSQVSKGVDFESSEDDDDDPFMNTSSLRRNRR
With B3, the binding result is on record as “no binding”.
